Test results published in publication PMC2579254 (The EMBO Journal, 2008).

B1: RhoE^1−200 (RhoE-GTP/Mg2+, residues 1–200) (domain or fragment, UniProt P61587 1-200, looked up)
chain: MKERRASQKLSSKSIMDPNQNVKCKIVVVGDSQCGKTALLHVFAKDCFPENYVPTVFENYTASFEIDTQRIELSLWDTSGSPYYDNVRPLSYPDSDAVLICFDISRPETLDSVLKKWKGEIQEFCPNTKMLLVGCKSDLRTDVSTLVELSNHRQTPVSYDQGANMAKQIGAATYIECSALQSENSVRDIFHVATLACVNK
B2: GST–RhoE^WT (natural protein, UniProt P61587 1-244, looked up)
chain: MKERRASQKLSSKSIMDPNQNVKCKIVVVGDSQCGKTALLHVFAKDCFPENYVPTVFENYTASFEIDTQRIELSLWDTSGSPYYDNVRPLSYPDSDAVLICFDISRPETLDSVLKKWKGEIQEFCPNTKMLLVGCKSDLRTDVSTLVELSNHRQTPVSYDQGANMAKQIGAATYIECSALQSENSVRDIFHVATLACVNKTNKNVKRNKSQRATKRISHMPSRPELSAVATDLRKDKAKSCTVM
B3: ROCK-I^1−406 (kinase and N-terminal dimerisation domains), His tag cleaved (domain or fragment, UniProt Q13464 1-406, looked up)
chain: MSTGDSFETRFEKMDNLLRDPKSEVNSDCLLDGLDALVYDLDFPALRKNKNIDNFLSRYKDTINKIRDLRMKAEDYEVVKVIGRGAFGEVQLVRHKSTRKVYAMKLLSKFEMIKRSDSAFFWEERDIMAFANSPWVVQLFYAFQDDRYLYMVMEYMPGGDLVNLMSNYDVPEKWARFYTAEVVLALDAIHSMGFIHRDVKPDNMLLDKSGHLKLADFGTCMKMNKEGMVRCDTAVGTPDYISPEVLKSQGGDGYYGRECDWWSVGVFLYEMLVGDTPFYADSLVGTYSKIMNHKNSLTFPDDNDISKEAKNLICAFLTDREVRLGRNGVEEIKRHLFFKNDQWAWETLRDTVAPVVPDLSSDIDTSNFDDLEEDKGEEETFPIPKAFVGNQLPFVGFTYYSNRRYL

What was measured:
[1] = biological target: B3; test: crystal structure
[2] = biological target: His6-ROCK-I^1−406 (purified without cleavage of the His6 tag) (UniProt Q13464 1-406); test: pull-down
[3] = biological target: the molecule itself; test: crystal structure

Binder: B1
binding result [1]: binds

Binder: B2
binding result [2]: binds

Binder: B3
stoichiometry N [3]: 2
